Among the data in US20090269356 are Kd values, retold here.

The Kd is the concentration at which binding is half-saturated. Read a low Kd as higher affinity.

This data set concerns the target complement C5 (full length) (Homo sapiens) (UniProt P01031). Put plainly: filter. The conditions noted are these: dRmY: A,G deoxy; C,U 2'-OMe; dot blot, DPBS.

Chain of complement C5 (full length) (Homo sapiens) (P01031 whole entry): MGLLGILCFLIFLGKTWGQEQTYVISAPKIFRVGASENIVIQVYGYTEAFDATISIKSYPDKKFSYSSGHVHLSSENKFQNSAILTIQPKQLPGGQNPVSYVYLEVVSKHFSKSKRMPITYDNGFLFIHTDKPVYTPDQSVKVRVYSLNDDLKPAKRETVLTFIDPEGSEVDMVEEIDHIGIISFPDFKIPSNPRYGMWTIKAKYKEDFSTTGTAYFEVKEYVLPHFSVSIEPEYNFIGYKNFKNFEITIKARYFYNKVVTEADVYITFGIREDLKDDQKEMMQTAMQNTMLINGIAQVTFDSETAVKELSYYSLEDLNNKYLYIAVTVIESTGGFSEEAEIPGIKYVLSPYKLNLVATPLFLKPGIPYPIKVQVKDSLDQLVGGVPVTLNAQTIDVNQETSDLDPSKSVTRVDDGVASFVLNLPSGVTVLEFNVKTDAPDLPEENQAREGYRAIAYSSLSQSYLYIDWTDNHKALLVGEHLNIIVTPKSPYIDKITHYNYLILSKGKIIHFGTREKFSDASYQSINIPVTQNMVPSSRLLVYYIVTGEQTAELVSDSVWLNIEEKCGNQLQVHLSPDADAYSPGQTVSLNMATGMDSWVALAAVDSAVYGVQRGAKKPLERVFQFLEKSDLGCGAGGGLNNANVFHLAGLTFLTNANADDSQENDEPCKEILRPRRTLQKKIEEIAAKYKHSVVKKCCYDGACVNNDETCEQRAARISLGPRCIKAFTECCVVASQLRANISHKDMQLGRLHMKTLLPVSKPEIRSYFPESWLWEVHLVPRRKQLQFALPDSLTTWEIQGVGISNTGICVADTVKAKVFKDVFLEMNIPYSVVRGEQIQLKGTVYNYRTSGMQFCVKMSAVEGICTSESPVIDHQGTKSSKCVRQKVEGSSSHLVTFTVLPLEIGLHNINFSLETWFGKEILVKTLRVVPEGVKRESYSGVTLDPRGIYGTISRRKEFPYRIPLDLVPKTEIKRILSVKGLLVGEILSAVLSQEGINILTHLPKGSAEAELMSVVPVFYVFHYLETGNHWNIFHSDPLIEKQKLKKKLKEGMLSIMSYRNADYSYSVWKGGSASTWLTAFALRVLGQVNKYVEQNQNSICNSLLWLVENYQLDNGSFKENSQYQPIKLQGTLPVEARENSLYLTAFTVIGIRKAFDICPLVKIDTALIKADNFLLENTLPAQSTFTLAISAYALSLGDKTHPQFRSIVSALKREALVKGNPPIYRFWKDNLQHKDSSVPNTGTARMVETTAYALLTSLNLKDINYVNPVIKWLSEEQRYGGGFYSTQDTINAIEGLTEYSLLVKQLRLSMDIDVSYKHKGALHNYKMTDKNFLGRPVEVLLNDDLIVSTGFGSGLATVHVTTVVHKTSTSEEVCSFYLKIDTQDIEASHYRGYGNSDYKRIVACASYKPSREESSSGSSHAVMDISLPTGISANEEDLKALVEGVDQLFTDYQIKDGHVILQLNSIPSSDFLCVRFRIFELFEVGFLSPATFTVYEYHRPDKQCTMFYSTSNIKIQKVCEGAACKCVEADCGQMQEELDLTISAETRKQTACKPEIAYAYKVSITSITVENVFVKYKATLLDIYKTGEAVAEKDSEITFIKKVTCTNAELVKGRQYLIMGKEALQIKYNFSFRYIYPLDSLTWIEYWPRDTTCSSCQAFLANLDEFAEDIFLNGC

As for “GGGAGAGGAGAGAACGUUCUACCUUGGUUUGGCNCAGGCAUANAUACGCACGGGUCGAUCGGUUACGACUAGCAU [doped clone SEQ 96]”, the Kd was determined as 0.084 µM.
